We go through ten molecules from patent US5264366A, “Protease deficient bacillus” (Genencor, Inc., priority 1991, dated 1993).

Numbering of substitutions follows the chain as printed. Names may count otherwise. *1 amine or outer side, *2 acyl side, *3 side chain or, on linkers, in order; H or OH if unused. Where a SMILES comes first, the peptide text is derived from it. The star is where a group is joined. pNA = O=[N+]([O-])c1ccc(N*)cc1; Suc = O=C(CCC(=O)[*:2])[*:1]

T1: B. amyloliquefaciens subtilisin, wild type (gly-166) (Bacillus amyloliquefaciens, UniProt P00782)
T1 construct: codons for the mature subtilisin corresponding to that secreted by the B. amyloliquefaciens; made in house; host or cells: Bacillus subtilis BG2036 (protease deficient), plasmid pS4-5
T1 sequence (P00782 108-382): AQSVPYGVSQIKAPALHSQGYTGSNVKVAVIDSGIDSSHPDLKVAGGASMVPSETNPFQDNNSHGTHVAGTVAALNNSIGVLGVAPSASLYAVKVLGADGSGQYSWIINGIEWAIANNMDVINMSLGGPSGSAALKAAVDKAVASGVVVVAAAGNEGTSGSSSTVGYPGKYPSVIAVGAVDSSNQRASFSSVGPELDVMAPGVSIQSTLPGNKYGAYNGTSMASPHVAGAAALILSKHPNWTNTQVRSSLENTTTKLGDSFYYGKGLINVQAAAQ

B1: B. amyloliquefaciens subtilisin, wild type (gly-166) (Bacillus amyloliquefaciens) (protein)
chain: T1 sequence (P00782 108-382)
notes: codons for the mature subtilisin corresponding to that secreted by the B. amyloliquefaciens; made in house; host or cells: Bacillus subtilis BG2036 (protease deficient), plasmid pS4-5
B2: B. amyloliquefaciens subtilisin variant asp + 166 (D166, glycine+166 substituted) (Bacillus amyloliquefaciens; G273D) (protein)
chain: T1 sequence (P00782 108-382) with G166D
notes: codons for the mature subtilisin corresponding to that secreted by the B. amyloliquefaciens; made in house; host or cells: Bacillus subtilis BG2036 (protease deficient)
B3: B. amyloliquefaciens subtilisin variant asn + 166 (glycine+166 substituted) (Bacillus amyloliquefaciens; G273N) (protein)
chain: T1 sequence (P00782 108-382) with G166N
notes: as for B2
B4: B. amyloliquefaciens subtilisin variant glu + 166 (E166, glycine+166 substituted) (Bacillus amyloliquefaciens; G273E) (protein)
chain: T1 sequence (P00782 108-382) with G166E
notes: as for B2
B5: B. amyloliquefaciens subtilisin variant ala + 166 (A166, glycine+166 substituted) (Bacillus amyloliquefaciens; G273A) (protein)
chain: T1 sequence (P00782 108-382) with G166A
notes: as for B2
B6: B. amyloliquefaciens subtilisin variant lys + 166 (glycine+166 substituted) (Bacillus amyloliquefaciens; G273K) (protein)
chain: T1 sequence (P00782 108-382) with G166K
notes: as for B2
B7: B. amyloliquefaciens subtilisin variant hys + 166 (glycine+166 substituted) (Bacillus amyloliquefaciens; G273H) (protein)
chain: T1 sequence (P00782 108-382) with G166H
notes: as for B2
B8: B. amyloliquefaciens subtilisin variant phe + 166 (glycine+166 substituted) (Bacillus amyloliquefaciens; G273F) (protein)
chain: T1 sequence (P00782 108-382) with G166F
notes: as for B2
B9: B. amyloliquefaciens subtilisin variant arg + 166 (glycine+166 substituted) (Bacillus amyloliquefaciens; G273R) (protein)
chain: T1 sequence (P00782 108-382) with G166R
notes: as for B2

In one data set the target is T1, B. amyloliquefaciens subtilisin, wild type (gly-166). In words: Kinetic parameters from progress curves, p-nitroanilide substrates. The format is biochemical. The note with it: 25° C., 0.1M tris buffer, pH 8.6. How it is done: (§1) B. subtilis strain BG2036 obtained by the method of Example 11 was transformed by the plasmids of Examples 14, 15 or 20 and by pS4-5 as a control. Transformants were plated or cultured in shaker flasks for 16 to 48 h at 37° C. in LB media plus 12.5 μg/ml chloramphenicol. Mutant enzymatically active subtilisin was recovered by dialyzing cell broth against 0.01M sodium phosphate buffer, pH 6.2. The dialyzed broth was then titrated to pH 6.2 with 1N HCl and loaded on a 2.5×2 cm column of CM cellulose (CM-52 Whatman). After washing with 0.01M sodium phosphate, pH 6.2, the subtilisins (except mutants at position +222) were eluted with the same buffer made 0.08N in NaCl. The mutant subtilisins at position +222 were each eluted with 0.1M sodium phosphate, pH 7.0. The purified mutant and wild type enzymes were then used in studies of oxidation stability, Km, Kcat, Kcat/Km ratio, pH optimum, and changes in substrate specificity.
(§2) Various mutants for glycine+166 were screened for modified Kcat, Km and Kcat/Km ratios. Kinetic parameters were obtained by analysis of the progress curves of the reactions. The rate of reaction was measured as a function of substrate concentration. Data was analyzed by fitting to the Michaelis-Menton equation using the non-linear regression algorithm of Marquardt (Marquardt, D. W. 1963, "J. Soc. Ind. Appl. Math." 11, 431-41).
Turning to `C[C@H](NC(=O)CCC(=O)O)C(=O)N[C@@H](C)C(=O)N1CCC[C@H]1C(=O)N[C@@H](Cc1ccccc1)C(=O)Nc1ccc([N+](=O)[O-])cc1` [sAAPFpN, succinyl-L-Alanyl-L-Alanyl-L-Prolyl-L-Phenylalanyl-p-nitroanilide] (Suc-AAPF-pNA), the Kcat was found to be 37 s⁻¹.

Substrate in another data set: CC(C)[C@H](NC(=O)c1ccccc1)C(=O)NCC(=O)N[C@@H](CCCNC(=N)N)C(=O)Nc1ccc([N+](=O)[O-])cc1
The description is as above. The format is biochemical. The note with it: other: 25° C., 0.1M tris buffer, pH 8.6. How it is done: as §1, §2
For B1, the Km (in general, the substrate concentration at which the rate is half of its maximum) stood at 1100 µM and the kcat (as a rule, the maximal rate divided by the concentration of active sites) came to 2 s⁻¹.

Substrate in the next data set: CC(C)[C@H](NC(=O)c1ccccc1)C(=O)NCC(=O)N[C@@H](CCCNC(=N)N)C(=O)Nc1ccc([N+](=O)[O-])cc1
The description is as above. The format is biochemical, B. amyloliquefaciens. The note with it: other: 25° C., 0.1M tris buffer, pH 8.6. The source holds these as a separate data set. As to the method:
(§3) The procedure of Examples 13-14 was followed in substantial detail, except that the mutagenesis primer differed (the 37 mer shown in FIG. 13 was used), the two restriction enzymes were SacI and XmaIII rather than PstI and KpnI and the resulting constructions differed, as shown in FIG. 13.
as §1, §2
On to B2, for which the Km was 41 µM and the kcat is 2 s⁻¹.

B3: the Km was 120 µM and the kcat came to 1 s⁻¹.

For the molecule B4, the Michaelis-Menten constant (Km) amounted to 27 µM and the kcat was determined as 2 s⁻¹.

Substrate in a further data set: C[C@H](NC(=O)CCC(=O)O)C(=O)N[C@@H](C)C(=O)N1CCC[C@H]1C(=O)N[C@@H](Cc1ccccc1)C(=O)Nc1ccc([N+](=O)[O-])cc1
The description is as above. It counts as biochemical, B. amyloliquefaciens. The note with it: other: 25° C., 0.1M tris buffer, pH 8.6. As to the method: as §3, §1, §2
Take B5: the Km was found to be 27 µM and the kcat came to 19 s⁻¹.

In the case of B6, the Km was determined as 34 µM and the kcat came out at 15 s⁻¹.

As to B7, the Km amounted to 110 µM and the kcat came to 15 s⁻¹.

For B2, the Km amounted to 580 µM and the kcat came to 3 s⁻¹.

B3: the Km was 140 µM and the kcat came to 26 s⁻¹.

Consider B8, for which the Km is 14 µM and the kcat was determined as 3 s⁻¹.

Turning to B4, the Km was determined as 340 µM and the catalytic constant (kcat) came to 11 s⁻¹.

Turning to B9, the Km came to 62 µM and the kcat was 19 s⁻¹.
